experiment: soluble on expression in E. coli; label from the status in PepcDB or PDB records

Question: For “MSLDKSIPVPEPSRMITGIKVHKISDVITYQGMISLTYDNNKRLTRIYSSSPLAAVNYTYKENSEVSYTYSTENSPLVEISTSLENGRSYVCKFSNRENPVTYSYDNEGYLKSCNNNGTVLEYNWESGNLSSITTTPRGTYNSDYRVSNIANDYSLDLNTLAQWIDDRENYTTVMNTFGQMAEILGKRSANILEDTYYIYDYSFRQDGRLKDMTLMGGSENIGYSFRFSYADDTEVSEGHHHHHH”, which “soluble on expression in E. coli” value is on record?
Answer: soluble

Question: For “MGSDKIHHHHHHMEALLQLKGIDKAFPGVKALSGAALNVYPGRVMALVGENGAGKSTMMKVLTGIYTRDAGTLLWLGKETTFTGPKSSQEAGIGIIHQELNLIPQLTIAENIFLGREFVNRFGKIDWKTMYAEADKLLAKLNLRFKSDKLVGDLSIGDQQMVEIAKVLSFESKVIIMDEPTDALTDTETESLFRVIRELKSQGRGIVYISHRMKEIFEICDDVTVFRDGQFIAEREVASLTEDSLIEMMVGRKLEDQYPHLDKAPGDIRLKVDNLCGPGVNDVSFTLRKGEILGVSGLMGAGRTELMKVLYGALPRTSGYVTLDGHEVVTRSPQDGLANGIVYISEDRKRDGLVLGMSVKENMSLTALRYFSRAGGSLKHADEQQAVSDFIRLFNVKTPSMEQAIGLLSGGNQQKVAIARGLMTRPKVLILDEPTRGVDVGAKKEIYQLINQFKADGLSIILVSSEMPEVLGMSDRIIVMHEGHLSGEFTREQATQEVLMAAAVGKLNRVNQE”, which “soluble on expression in E. coli” value is on record?
Answer: not soluble

Question: For “FDLNDFLEQKVLVRMEAIINSMTMKERAKPEIIKGSRKRRIAAGSGMQVQDVNRLLKQFDDMQRMMKKM”, which “soluble on expression in E. coli” value is on record?
Answer: soluble

Question: For “DRWIRPRGAFGGLPSLKSSFVLSESTVPGTNETVKTFLPYGSVINYYGYVKPGQAPDGLVDGNKKAYYLYVWIPAVIAEMGVRMISPTGEIGEPGDGDLVSDAFKAATPEEKSMPHWFDTWIRVERMSAIMPDQIAKAAKAKPVQKLDDDDDGDDTYKEERHNKYNSLTRIKIPNPPKSFDDLKNIDTKKLLVRGLYRISFTTYKPGEVKGSFVASVGLLFPPGIPGVSPLIHSNPEELQKQAIAAEESLKKAASDATK”, which “soluble on expression in E. coli” value is on record?
Answer: soluble

Question: For “GPGSMGRQKSRNLWNDGEGTKSVCRPQQVTVAKGWRVTPDLLPAKPLAPRRRKYAPIRPNNRDAVAIPLGGQSYNPLDEEHQEALAKAVRQLSKKKLKDEKFVKMMTMGRDKKYTGNLSADKTWEEEVQETEPATAKTPKKKRTKTAPASTGASSSAPSSAPSPVTHNGNKAKHEKVAAAPAAVAKNGKTAKKQKKKTKKATAEEAKRAMTHRRHPKRGVVAKETDELDVLLAAHKATACKREVARQKRRAAKKANLAIKHYGRHYHTPLVLDVTPSDKLVGSLRHLSGGYVHPALERMKSLEERNLVPARMRHTYNKRKVLKPKGEVRVKREEFGVMPMTGF”, which “soluble on expression in E. coli” value is on record?
Answer: soluble

Question: Which “soluble on expression in E. coli” value does the source give for “MLLLTRSPTAWHRLSQLKPPVLPGTLGGQALHLRSWLLSRQGPAETGGQGQPQGPGLRTRLLITGLFGAGLGGAWLALRAEKERLQQQKRTEALRQAAVGQGDFHLLDHRGRARCKADFRGQWVLMYFGFTHCPDICPDELEKLVQVVRQLEAEPGLPPVQPVFITVDPERDDVEAMARYVQDFHPRLLGLTGSTKQVAQASHSYRVYYNAGPKDEDQDYIVDHSIAIYLLNPDGLFTDYYGRSRSAEQISDSVRRHMAAFRSVLS” here?
Answer: not soluble

Question: With “MRGSHHHHHHTDPALRAMATLLQLHFAFNGPFGDAMAEQLKPLAESINQEPGFLWKVWTESEKNHEAGGIYLFTDEKSALAYLEKHTARLKNLGVEEVVAKVFDVNEPLSQINQAKLAGLCGR” as the sequence, how does the “soluble on expression in E. coli” value read?
Answer: soluble

Question: With “MVDSRAFKLKEGREREVDMTSETEKRIIALEETIAHQAKTIEELSDQLAEQWKVVEQTRAKLDRLTERFLSLEEQSLDAPAITRPPHY” as the sequence, how does the “soluble on expression in E. coli” value read?
Answer: not soluble

Question: Which “soluble on expression in E. coli” value does the source give for “MSLASPDWQDQIIYFLMIDRFNDGDSALNDQGQNEFDPTSDKKFSGGDLVGVSDKLSYIEDLGATSIWITPPVANQWWDAEQNYGGYHGYWARDFQKVDEHFGDMESYQALAREVHARNMFLIQDIVTNHVGNFFTYDDPYSYDPSLPCQGFRLIKNALPAGQELPYPLNMNECKTDGTGSYHWTPTITDHNDPVQEKTWQLSDLDDLNTSDPEVRAYLKESYRKWIREVGVDGFRIDTVKFVEHDFWSDFLHADDGVMTQAVDTGRDNFLTFGEVFETSTPYHTEGEEKMLTYIGESGSPKQLTSVLNFPLQATMTRVFASGQPTDYLRFRLEKMMEMFPNPYIMPNFIDNHDMPRFLSQGSVNDMKQALITMMSVPGIPVIYQGTEQAMSAARDAMFAGGYREDGNYVDSFDQNSEMYLFIQELAKLRTENKVMTRGEIKVIGSDKAGAGVFAFTRTLDNDEVLVVMNTSNSPMLMNQLDVEQAGGTVFKQQIMSNWADAPEQLVADENGHVTLELPAKSAVIYSKTSSNQSVNTPDLNIQLAQDWEGKTITGDIVIAGSANANEKLNLVVDGNLETAQTITVGADGQFSVTLSTRHFAIGEQQHRFAIYSTEKKAGIEDVNFVSNLSWSNTPDDTIDDAGDAQDGVGGPNGNYSLPTDPTFDKDNSQLAINKAEVFTVGSNVRLTFTMDKITDTWLPPNGFDHVGFTIFIDLPEEAATNLSELPKINASMPNGTWSRNAVVFGWQSSIYNTKGANATTWGEAVTPAPTVTVDKANNTISMDFASDALGRPESLDGIRFYVTTWDLDGLSATYRPLEQDKGPWNFSGGASDESKIWDDLPIITLSEGHHHHHH” here?
Answer: not soluble

Question: For “MGSDKIHHHHHHMLGKTAGGLYWLFRYLERSENTARLIETGFRIALTRPDGSDDEWRSVLQTAAVRDLYEGLYGEVEQAKAIDFLLRDRANPSSILSSISEARQNARLTRTALTREVWEAINDAYMNLKELLAHPVSAKTLPGTLATIRQHSALVRGAMHGTMLRTDIFDFCRLGTFIERADNTARILDVKYYVLLPSMTQVGSDLDNVQWETILRAVASHRSYRWLMGGETTPKGIADFLVFDTRMPRSLRFTVKKMASNLEYLAENYGQRHACHDQMDVLLARLKHGTIDEVFDDGLHEFLTEFLLDIGALGAQIESDYRFLG”, which “soluble on expression in E. coli” value is on record?
Answer: not soluble

Question: For “MQRIPCVLMRGGTSKGPFFHAWDLPANVVERDELLINLMGSGHELEIDGIGGGSPQTSKVAIISPSLHADADVDYLFVQVMVAQRRVDTAPNCGNMLCAVGPFAIEQGLVKGQEGKTLVRIRNLNTGTFVNSLVETPGGIVRYEGRTAIDGVPGTAAPVHLTFLDAVGSKTGKLFPTGKAQDVIDGVPVTCIDMAMPMMVVEASQLGVSGSETPAQLDANSALLERLEALRLKAGKAMGLGDVSGMVIPKPVLVSKPRYDGTLQVRYFMPHNCHRALAITGAVGLATACVSPGTVIADLLGEGAQQLAQVRLEHPSGGIDVALTRSGAEGQTIQASVVRTARRLFSGFVYAPTFRRLAGLEHHHHHH”, which “soluble on expression in E. coli” value is on record?
Answer: soluble

Question: With “MGSDKIHHHHHHMSTELRRVTYGNHGVARLTPAPDKPGTYMGMPKFSKAVKGELNLSVQRKNMRNATMTIRNKRAMRVSESPDWQDLRDAAESIKNRVGRHLDHYLVEAEKNLTANGVHVHWARDGEEANRIVAQIAKDKGVDEVVKIKSITSQETDLNEYLEEQGIAAWETDLAELIVQLGHDRPSHIVVPAIHRNRAEVREIFLHEMKNYGRPAPEDISENPPELTNAARLHLREKFLRAEMAVSGGNFVLADTGSLVIVESEGNGRMCLTLPDTLVSIVGIEKVLPSFDDLEVFLKLLPRSATGERMNPYNSVWSGVTDGDGPQEQHVIFLDNGRTDVLADTLGREVLRCIRCASCINICPVYERAGGHAYGSVYPGPIGAVLNPQLRGVEHPVDRGLPYACSLCGACNEVCPVKIPFTDILLKLRNKVVKSEKADRIPQDYEVAGEMGLMKTASWAFSDHKHFEAIQVGSRGVGRVLRGKKMGPVPVPVAERWLKYRDVDAPPADTFRTWWKKNREAQR” as the sequence, how does the “soluble on expression in E. coli” value read?
Answer: not soluble

Question: With “DNARTNPLKDLEFFLHSFRGLLEKAPVVVGITKMDIRSQPGIDVYHKYLAKHNLNVPVFEIDARKEDDVKQLVSAMLFSIDPGLEV” as the sequence, how does the “soluble on expression in E. coli” value read?
Answer: not soluble

Question: For “MSSEEDEIAELSKDTPPEKKRKISESGASSSSFIPESTSEESLSLKSKKSGSRKRILTASSSTNSIAMKSSASWIQEKDTPINKSDEEKSIAESLLIANFSNEQLDRYTAFKRSRFNRRIIKNVITRTTGQIPSDPLALAVAGLTKMFIGDLVEEAVELRGALNEQDRPVQPYHITRAFDKLLAEGKLWPPYGAKY”, which “soluble on expression in E. coli” value is on record?
Answer: not soluble

Question: With KSKKAVWHKLLSKQRRRAVVACFRMTPLYN as the sequence, how does the “soluble on expression in E. coli” value read?
Answer: soluble

Question: With “SLNQDEKRTFRLEKEQELRFEVSNENKVYLTLQSGTAEVFGIELPKKKPVELCDTKLAVFTWQGCELQLQGITDLEYVANETPMHLYLKAHYLLDSMRRKARQQGTKGPKVVIVGPQDSGKSSLCQILSCYAMKGGKKILYASIDFQQGSFSIPGAIGASSVEHVTIEDGMIFENNLVYFYGHTVASENPRLLEKLVSNLSNLLDAKLEDSEMDLGHMGFIADSFGSLDGSNYDVLKQVLKEIKANVIIVLGSERLYADIQRDLCSEQRQIIQLPKSGGVVGRDQYLRRRLQEMQLRCYFYGSDGNLNPFTTVVTFDQVHIVRVGIGLHVPATALPLGAQSTLDPLQISQVTPSTELLHCMLGVSQAEEEEQIVDSPVYGFVHVAKVDISKRTISLLAPSPGKLPGSFLVMGSIRWLE” as the sequence, how does the “soluble on expression in E. coli” value read?
Answer: soluble

Question: Which “soluble on expression in E. coli” value does the source give for “MDMDEKDVVETEEESFAELFEKSNSETQRLRPGSKVEGKILKIGAEWVFIDIGKKGEGVMERKELQDAEGNLTVAEGDTITAWFTGSVRNEMRFTTKLGAGAAANAQLEEAHRSGIPVEGFVVKEIKGGFEVRLSGTTRAFCPFSQISLRRAENPAEFVGKHLLFKVTEYSERGRNIVLSHRQILEEEQRVKREALKEVLLEGMTVTGTVTRLADFGAFVDLGGVDGLIPVSEVGWTRVKHVRDVLSVGEQVSVVIKKIDWEAGKISLSLKDTLADPWTTVAEQFPEGSYHTGTVARLAAFGAFVTLAPGIDGLIHISKLGKGKRINHPSDVLKEGETVEVKVDGVDREARRLSLALAEVSRAAEEEEKSVASFRQQATSSSKESMGSFGDLLKAKIEEKRLEHHHHHH” here?
Answer: not soluble

Question: Which “soluble on expression in E. coli” value does the source give for “MGSDKIHHHHHHMIQVPASFDIQGHRGCRGLLPENTIAAFTKALLLGVTTLEFDLVISKDNRVVVSHDTFFHHEITMMVDGEDVTEANEKNFNLYAMNYADIKEIDVGMKTHPRFKSQKKVPAVKPLFRELIETAEKLSAKIQYNGEIKSTVEGDNIDHPNIALFCDLVVAEIKKAHITDRFTLQSFDVRALEYMHSQYPDIKLSYLVETKGTLKKQLEKLSFTPAVYSPDVTLVSKKDIDAAHKLGMRVIPWTVNTKEEIETLISLGVDGIITDYPDLFFEK” here?
Answer: not soluble

Question: With “MGSDKIHHHHHHMAQTVSIIVSPEDQVRLAEVIGDRNSPQKHVQRARIVLHSAEHRPVLEVARDIGISRPAVWRWQLRYAEQGVDGLLRDKTRKPGKPPLPLGTVARVLALPCSNPPGSVTHWTGRAVAKAVGISLRAVQRIWDAHHLQPHRLRTFKKSKDPAFTEKVEDVVGLYMEPPCHAVVLSIDEKSQIQALDRTQPGLPLKPGKCATMTHDYKRNGTTTLFAALNILDGTVLGRCMQKHRHQEFIKFLNAVERAVPAGKIIHAILDNYGTHKHPKVRQWLADHPRWVFHFTPTL” as the sequence, how does the “soluble on expression in E. coli” value read?
Answer: not soluble

Question: For “MSDRKPVRGRHQARKRAVALLFEAEVRGISAAEVVDTRAALAEAKPDIARLHPYTAAVARGVSEHAAHIDDLITAHLRGWTLDRLPAVDRAILRVSVWELLHAADVPEPVVVDEAVQLAKELSTDDSPGFVNGVLGQVMLVTPQLRAAAQAVRGGA”, which “soluble on expression in E. coli” value is on record?
Answer: soluble

Question: Which “soluble on expression in E. coli” value does the source give for “NDSPFYVNPNMSSAEWVRNNPNDPRTPVIRDRIASVPQGTWFAHHNPGQITGQVDALMSAAQAAGKIPILVVSNAPGRDCGNHSSGGAPSHSAYRSWIDEFAAGLKNRPAYIIVEPDLISLMSSCMQHVQQEVLETMAYAGKALKAGSSQARIYFDAGHSAWHSPAQMASWLQQADISNSAHGIATNTSNYRWTADEVAYAKAVLSAIGNPSLRAVIDTSRNGNGPAGNEWCDPSGRAIGTPSTTNTGDPMIDAFLWIKLPGEADGCIAGAGQFVPQAAYEMAIAA” here?
Answer: soluble

Source: the DeepSol protein solubility set
